# Measured values published in PMC12823420.
# How the values were obtained:
# [1] = target: ALYREF N-UBM peptide, biotinylated (human); assay: grating-coupled interferometry (GCI); biotinylated UBM or UCM peptides captured on a streptavidin chip; UAP56 injected; 25 mM HEPES pH 7.9, 50 mM KCl, 1 mM MgCl2, 1 mM TCEP, 25 °C; one-to-one model; UCM peptides also with AMP-PNP or AMP-PNP and 15 U RNA
# [2] = target: the THO complex (recombinant, surface-immobilized; tetramer, dimer or monomer, not told apart in the sentence); assay: grating-coupled interferometry (GCI); V5-tagged THO complex captured on an anti-V5 chip; UAP56 injected in a 1:2 series from 5 μM, alone or with only 1 mM ATP or only 200 μM 15 U RNA; 25 mM HEPES pH 7.9, 50 mM KCl, 1 mM MgCl2, 1 mM TCEP, 25 °C; one-to-one model
# [3] = target: UAP56-UCM-1-N-UBM fusion (Homo sapiens) (UniProt Q13838+P82979+Q86V81); assay: GCI; conditions: 1 mM ATP, RNA immobilized, GCI: 25 mM HEPES pH 7.9, 50 mM KCl, 1 mM MgCl2, 1 mM TCEP, 25 C, AdML pull-down: 20 mM HEPES pH 7.9, 100 mM KCl, 2 mM MgCl2, 5% glycerol, 0.1% …
# [4] = target: UAP56;SARNP (Homo sapiens;Homo sapiens) (UniProt Q13838); assay: pull-down; conditions: 1 mM AMP-PNP; UAP56 bound with SARNP set to 100%; GCI: 25 mM HEPES pH 7.9, 50 mM KCl, 1 mM MgCl2, 1 mM TCEP, 1 mM ATP, 25 C; AdML pull-down: 20 mM HEPES pH 7.9, 100 mM KCl, 2 mM MgCl2, 5% glycerol, 0.1% …
substance,measurement,setting,value
UAP56 (from UniProt Q13838 1-428) (enzyme),Kd,[1],28 µM
same,Kd,[2],0.24 to 0.39 µM
UUUUUUUUUUUUUUU [15U RNA],Kd,[3],0.12 µM
"AdML RNA with MS2 loops, 450 nt",binding signal,[4],100%
